Results reported in article PMC3229523, “Identification of Lactoferricin B Intracellular Targets Using an Escherichia coli Proteome Chip” (PLoS ONE, 2011).
Ends that are not written are not given here. * marks the point of attachment. Biotin = O=C1N[C@H]2[C@H](CS[C@H]2CCCCC(=O)*)N1

Tests used:
Assay in all cases: peptide or protein array; E. coli proteome chip: purified His-tagged proteins printed in duplicate on Fullmoon slides, blocked with 1% BSA; 10 nM N-terminal biotinylated LfcinB with 1% BSA, room temperature, 1 h; detected with DyLight 649-labeled streptavidin, ratio to DyLight 549-labeled anti-His antibody; ProCAT normalisation, local cut-off; triplicate chips
Settings in all cases: both partners purified
[1] = target: RpsB (E. coli K-12, UniProt P0A7V0 1-241)
[2] = target: T1, YggF (E. coli K-12, UniProt P21437 1-321)
T1 construct: YggF, E. coli K-12
T1 sequence (looked up): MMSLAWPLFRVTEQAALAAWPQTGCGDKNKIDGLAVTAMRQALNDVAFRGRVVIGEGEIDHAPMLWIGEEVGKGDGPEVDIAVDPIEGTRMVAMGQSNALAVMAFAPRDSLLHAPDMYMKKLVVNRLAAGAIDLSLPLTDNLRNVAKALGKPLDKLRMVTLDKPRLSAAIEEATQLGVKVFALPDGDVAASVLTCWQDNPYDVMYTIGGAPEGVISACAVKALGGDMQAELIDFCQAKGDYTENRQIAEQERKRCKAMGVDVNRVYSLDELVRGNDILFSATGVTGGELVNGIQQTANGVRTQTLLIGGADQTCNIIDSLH

[3] = target: T2, YpdH (E. coli K-12, UniProt P69808 1-108)
T2 construct: YpdH, E. coli K-12
T2 sequence (looked up): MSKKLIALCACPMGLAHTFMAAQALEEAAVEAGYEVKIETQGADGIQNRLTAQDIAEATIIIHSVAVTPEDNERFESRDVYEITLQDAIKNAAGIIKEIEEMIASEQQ

[4] = target: T3, PaaG (E. coli K-12, UniProt P77467 1-262)
T3 construct: PaaG, E. coli K-12
T3 sequence (looked up): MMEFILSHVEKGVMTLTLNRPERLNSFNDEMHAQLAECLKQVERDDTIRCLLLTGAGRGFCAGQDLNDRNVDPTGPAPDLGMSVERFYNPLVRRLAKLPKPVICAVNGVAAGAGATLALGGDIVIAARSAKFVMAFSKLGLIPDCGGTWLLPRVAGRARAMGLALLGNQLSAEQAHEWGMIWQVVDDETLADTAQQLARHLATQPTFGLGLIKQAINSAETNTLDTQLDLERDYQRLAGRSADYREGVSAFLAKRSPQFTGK

[5] = target: T4, YcgK (E. coli K-12, UniProt P76002 23-133)
T4 construct: YcgK, E. coli K-12
T4 sequence (looked up): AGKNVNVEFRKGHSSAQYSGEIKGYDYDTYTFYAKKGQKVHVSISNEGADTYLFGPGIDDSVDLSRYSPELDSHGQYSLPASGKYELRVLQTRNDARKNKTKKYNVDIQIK

[6] = target: T5, YgfJ (E. coli K-12, UniProt Q46810 1-192)
T5 construct: YgfJ, E. coli K-12
T5 sequence (looked up): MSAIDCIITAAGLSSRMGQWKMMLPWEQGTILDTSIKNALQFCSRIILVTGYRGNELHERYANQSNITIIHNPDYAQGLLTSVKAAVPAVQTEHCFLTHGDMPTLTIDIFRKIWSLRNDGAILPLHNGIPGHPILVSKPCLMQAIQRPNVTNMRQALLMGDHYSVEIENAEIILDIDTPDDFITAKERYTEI

Measured: binding result

B1: N-terminal biotinylated Lactoferricin B (peptide, UniProt P24627 36-60, looked up)
peptide: Biotin-FKCRRWQWRMKKLGAPSITCVRRAF
modifications: ends and bridges not checked
notes: lactoferricin B (LfcinB), cationic antimicrobial peptide of 25 amino acids; also called biotinylated LfcinB; biotin-labeled LfcinB; source: bought: Kelowna Inc
binds: [1] | [2] | [3] | [4] | [5] | [6]
